Measured values from publication PMC5700921.

Molecular target: T1, β-klotho (UniProt Q99N32)
T1 sequence: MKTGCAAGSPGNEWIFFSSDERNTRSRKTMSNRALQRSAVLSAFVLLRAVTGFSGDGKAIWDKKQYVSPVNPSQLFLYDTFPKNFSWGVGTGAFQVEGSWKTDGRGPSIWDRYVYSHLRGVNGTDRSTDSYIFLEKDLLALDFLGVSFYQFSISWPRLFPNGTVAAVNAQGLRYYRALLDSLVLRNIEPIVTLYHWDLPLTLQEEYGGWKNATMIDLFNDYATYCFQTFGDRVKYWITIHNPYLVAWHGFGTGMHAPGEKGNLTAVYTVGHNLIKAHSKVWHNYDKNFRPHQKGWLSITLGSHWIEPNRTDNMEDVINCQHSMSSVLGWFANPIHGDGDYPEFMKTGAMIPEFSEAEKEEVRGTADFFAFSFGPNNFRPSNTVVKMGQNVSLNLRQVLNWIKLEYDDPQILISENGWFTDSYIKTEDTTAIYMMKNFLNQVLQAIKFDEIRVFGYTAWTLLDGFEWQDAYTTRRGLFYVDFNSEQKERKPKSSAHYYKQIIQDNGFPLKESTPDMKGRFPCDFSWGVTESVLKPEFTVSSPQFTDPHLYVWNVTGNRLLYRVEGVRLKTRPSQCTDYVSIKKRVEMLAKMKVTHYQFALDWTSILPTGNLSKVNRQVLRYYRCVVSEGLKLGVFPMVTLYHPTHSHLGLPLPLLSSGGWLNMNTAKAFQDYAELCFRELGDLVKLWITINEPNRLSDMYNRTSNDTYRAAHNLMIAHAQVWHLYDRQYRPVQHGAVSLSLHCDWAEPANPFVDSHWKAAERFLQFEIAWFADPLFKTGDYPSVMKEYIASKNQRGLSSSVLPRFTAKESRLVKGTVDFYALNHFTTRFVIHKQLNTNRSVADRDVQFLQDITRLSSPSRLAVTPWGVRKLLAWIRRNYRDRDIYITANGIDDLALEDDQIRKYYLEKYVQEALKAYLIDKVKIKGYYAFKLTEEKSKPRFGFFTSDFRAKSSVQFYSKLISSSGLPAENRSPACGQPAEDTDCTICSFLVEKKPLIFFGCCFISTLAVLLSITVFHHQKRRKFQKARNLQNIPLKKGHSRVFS

EC50 of proliferation (MTT assay, 24 h) of β-klotho-transfected NIH-3T3 cells, hFGF21 at 0.01-500 ng/mL; untransfected cells showed no proliferative effect (data not shown): 0.3 nM
Substance: purified human fibroblast growth factor 21 (hFGF21), tag-free after TEV cleavage of MBP-hFGF21 (from UniProt Q9NSA1 29-209) (ligand)
